Measurements: patent publication US20130064835A1, “RAGE REGULATES ROCK ACTIVITY IN CARDIOVASCULAR DISEASE” (priority 2009, published 2013)

B1: S100B: RAGE ligand S100B (protein, UniProt P04271 2-92, looked up)
Protein S100-B: SELEKAMVALIDVFHQYSGREGDKHKLKKSELKELINNELSHFLEEIKEQEVVDKVMETLDNDGDGECDFQEFMAFVAMVTTACHEFFEHE
B2: Tgf-β2: Tgf-β2 (R&D Systems), used as SMC stimulant (protein)
chain: ALDAAYCFRNVQDNCCLRPLYIDFKRDLGWKWIHEPKGYNANFCAGACPYLWSSDTQHTKVLSLYNTINPEASASPCCVSQDLEPLTILYYIGNTPKIEQLSNMIVKSCKCS

Key:
[1] = system: vascular smooth muscle cells; assay: Smooth muscle cell proliferation assay (tritiated thymidine incorporation); type: cell-based, mice; conditions: for S100B-stimulated SMC proliferation in presence of inhibitor: preincubation with agent (Y27632 10 μM, fasudil 10 μM, anti-Tgf-β2 IgG 10 μg/ml vs IgG control), FIGS. 8C, 8E; for SMC proliferation on incubation with stimulant: FIG. 8A
Experimental: (§1) Wild-type and RAGE null mice vascular smooth muscle cells were isolated and cultured from the aorta and employed through passage 5 to 7. Migration assays were performed using the QCM Colorimetric Cell Migration Assay (Chemicon). Cells (3×10^5/well) were seeded into the upper chambers fitted with a lower 8 μm porous polycarbonate membrane, and the insert was placed in the lower chamber of a 24-well dish containing Dulbeccos' modified Eagle medium and no stimulant, S100B (10 μg/ml; generously provided by Dr. Guenter Fritz), Tgf-β2 (10 ng/ml; R&D Systems), or PDGF (10 ng/ml; R&D Systems) and incubated at 37° C. for 5 hrs and relative migration was measured according to the manufacturer's instructions. In experiments using anti-Tgf-β2 IgG and nonimmune IgG (10 μg/ml, both from Santa Cruz Biotechnology, Santa Cruz, Calif.), Y27632 (10 μM, Sigma Aldrich) and fasudil hydrochloride (10 μM, Tocris Bioscience, Ellisville Mo.) cells were preincubated with these agents or vehicle alone for 2 hrs in the case of antibodies and 30 mins in the case of Y27632 or fasudil at 37° C. prior to the addition to the chemotaxis chambers. Proliferation of cultured SMCs was quantified by measurement of incorporation of tritiated thymidine. SMCs were seeded at a density of 2×10^4 cells/wells in 24-well tissue culture-treated plates and incubated in serum-free DMEM for 16 hrs. Following a 2 hr preincubation with the indicated concentration of anti-Tgf-β2, nonimmune IgG, Y27632 or fasudil, cells were exposed to serum-free DMEM containing the indicated concentration of S100B or PDGF (10 ng/ml) along with 3H-thymidine (1 μCi/well). After the incubation period, cells were harvested 48 hrs later, and cellular proliferation was determined based on the incorporation of tritiated thymidine. Cell counting was performed and confirmed that increased trititated thymidine incorporation reflected an increase in cell number.

[2] = system: vascular smooth muscle cells; assay: Smooth muscle cell migration assay (QCM Colorimetric Cell Migration Assay); type: cell-based, mice; conditions: S100B 10 μg/ml; for S100B-stimulated SMC migration in presence of inhibitor: preincubation with agent (Y27632 10 μM, fasudil 10 μM, anti-Tgf-β2 IgG 10 μg/ml vs IgG control), FIGS. 8D, 8F; for SMC migration on incubation with stimulant: Tgf-β2 10 ng/ml, PDGF 10 ng/ml, FIG. 8B
Experimental: as §1

[3] = system: ROCK1; assay: ROCK1 activity assay (MYPT1 phosphorylation) on lysates of aorta or primary aortic SMCs; type: cell-based, murine; conditions: S100B 10 μg/ml, FIG. 5B
Experimental: Activation of ROCK1 was evaluated on lysates of aorta or primary murine aortic smooth muscle cells retrieved from wild-type or RAGE null mice. In the latter case, SMCs were stimulated with S100B (10 μg/ml for the indicated times and subjected to ROCK1 activity assays (7-8). Aortas or SMCs were lysed using a Triton X-100 lysis buffer containing 50 mM Tris (pH 7.5), 10 mM MgCl2, 0.5 M NaCl and 1% Triton X-100. The samples were incubated with Anti-ROCK1 antibody described above for 1 hr further with Protein G coated agarose beads for overnight at 4° C., and the beads were washed three times with lysis buffer. The amount of ROCK1 associated with the beads was incubated with 50 μl kinase buffer, 1 μl 10 mM ATP (Cell Signalling) and 0.5 μg […] myosin phosphatase-1 (MYPT1)/protein phosphatase-1 regulatory (inhibitor) subunit 12A (Ppplrl2a) substrate (Upstate Biotech) at […] for 30 min. Reaction was stopped by adding sample buffer, boiled for 5 min and the amount of phosphorylated MYPT1 was examined by immunoblotting using ThrB50-phosphorylation specific antibody 36-003 (Upstate Biotechnology). […] Equal quantities of ROCK1 were treated with equal quantities of MYPT1/Ppp1r12a. Relative absorbances were measured as described above, and these were used to determine the relative activation of ROCK1. […]

Molecule | S100B-stimulated SMC proliferation in presence of inhibitor ([1]; wild-type SMCs) | S100B-stimulated SMC migration in presence of inhibitor ([2]; wild-type SMCs) | SMC proliferation on incubation with stimulant ([1]; RAGE-deficient SMCs) | SMC proliferation on incubation with stimulant ([1]; wild-type SMCs) | SMC migration on incubation with stimulant ([2]; RAGE-deficient SMCs) | SMC migration on incubation with stimulant ([2]; wild-type SMCs) | ROCK1 activity upon incubation with RAGE ligand ([3]; SMCs from RAGE null mice) | ROCK1 activity upon incubation with RAGE ligand ([3]; primary aortic SMCs from wild-type mice)
C[C@@H](N)[C@H]1CC[C@H](C(=O)Nc2ccncc2)CC1 [Y27632, reference compound] | significantly reduced | significantly reduced | – | – | – | – | – | –
O=S(=O)(c1cccc2cnccc12)N1CCCNCC1 [fasudil, 5-(1,4-diazepane-1-sulfonyl)isoquinoline, reference compound] | significantly reduced | significantly reduced | – | – | – | – | – | –
PDGF [reference compound] | – | – | increased | increased | increased | increased | – | –
B1 | – | – | failed to stimulate | significantly increased | failed to stimulate | significantly increased | failed to increase ROCK1 activity | increased ROCK1 activity
B2 | – | – | increased | increased | increased | increased | – | –
